From article PMC12135372

Legend:
[1] = target: Truncated Danio rerio tRNA ligase complex (His6-RTCB, FAM98B, CGI99, ASW 1-83, DDX1 693-740) (Danio rerio) (UniProt Q6NZS4)
[2] = target: Full-length five-subunit Danio rerio tRNA ligase complex (DDX1, RTCB, FAM98B, CGI99, ASW) (Danio rerio) (UniProt F1R2L8)
[3] = target: T1, Dr-tRNA-LC-TR (DDX1 C-term, RTCB, FAM98B, CGI99, ASW N-term) (Danio rerio) (UniProt F1R2L8+Q6NZS4+A0PJS3+Q7ZUH1); test: MST; details: 2 mM GTP, 2 mM MnCl2 (buffer B, implied by text); MST: 25 mM Hepes pH 7.5, 150 mM NaCl, 1 mM DTT, with or without 2 mM GTP and 2 mM MnCl2, 20 nM Cy5-tRNA, temperature not stated; crosslinking: 50 mM Tris pH …
T1 sequence 1: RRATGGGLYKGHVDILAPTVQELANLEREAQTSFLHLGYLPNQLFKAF
T1 sequence 2: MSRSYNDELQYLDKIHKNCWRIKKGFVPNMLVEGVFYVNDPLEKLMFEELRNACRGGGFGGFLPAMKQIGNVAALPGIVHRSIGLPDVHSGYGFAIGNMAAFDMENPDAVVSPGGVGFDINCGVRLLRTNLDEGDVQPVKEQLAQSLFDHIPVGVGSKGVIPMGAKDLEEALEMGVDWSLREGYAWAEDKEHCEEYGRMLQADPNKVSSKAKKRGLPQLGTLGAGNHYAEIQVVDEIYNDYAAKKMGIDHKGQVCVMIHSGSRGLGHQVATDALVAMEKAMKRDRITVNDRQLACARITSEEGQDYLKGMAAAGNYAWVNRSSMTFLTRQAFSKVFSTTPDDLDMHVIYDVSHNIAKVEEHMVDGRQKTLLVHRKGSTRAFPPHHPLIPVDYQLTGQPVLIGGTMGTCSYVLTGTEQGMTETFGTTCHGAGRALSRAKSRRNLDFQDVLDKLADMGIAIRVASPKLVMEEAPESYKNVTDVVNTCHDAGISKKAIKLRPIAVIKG
T1 sequence 3: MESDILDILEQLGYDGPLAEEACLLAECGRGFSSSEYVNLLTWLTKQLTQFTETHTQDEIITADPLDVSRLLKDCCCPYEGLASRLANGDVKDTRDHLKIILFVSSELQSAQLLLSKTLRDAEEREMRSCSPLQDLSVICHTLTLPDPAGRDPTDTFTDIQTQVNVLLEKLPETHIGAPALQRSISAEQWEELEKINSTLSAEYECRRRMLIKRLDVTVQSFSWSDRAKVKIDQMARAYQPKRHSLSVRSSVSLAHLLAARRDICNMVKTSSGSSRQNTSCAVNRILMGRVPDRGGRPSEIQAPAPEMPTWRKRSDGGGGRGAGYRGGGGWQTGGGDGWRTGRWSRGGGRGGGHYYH
T1 sequence 4: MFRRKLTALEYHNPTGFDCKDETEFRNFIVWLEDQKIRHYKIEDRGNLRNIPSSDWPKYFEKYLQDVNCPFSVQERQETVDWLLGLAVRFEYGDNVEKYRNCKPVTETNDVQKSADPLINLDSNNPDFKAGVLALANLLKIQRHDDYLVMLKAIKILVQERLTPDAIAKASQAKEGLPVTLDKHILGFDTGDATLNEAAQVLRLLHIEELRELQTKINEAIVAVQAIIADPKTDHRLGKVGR

[4] = target: Dr-tRNA-LC-FL (DDX1, RTCB, FAM98B, CGI99, ASW) (Danio rerio) (UniProt F1R2L8+Q6NZS4+A0PJS3+Q7ZUH1); test: MST; details: 2 mM GTP, 2 mM MnCl2 (buffer B, implied by text); MST: 25 mM Hepes pH 7.5, 150 mM NaCl, 1 mM DTT, with or without 2 mM GTP and 2 mM MnCl2, 20 nM Cy5-tRNA, temperature not stated; crosslinking: 50 mM Tris pH …

| RNA ligase activity on the short 10-bp RNA duplex substrate, percent of substrate converted to product, time course up to 120 min (0.15 μM complex, 0.6 μM Dr-Archease) [1] [%] | RNA ligase activity on the short 10-bp RNA duplex substrate, percent of substrate converted to product, time course up to 120 min (0.15 μM complex, 0.6 μM Dr-Archease) [2] [%] | Substance | Kd [3] [nM] | Kd [4] [nM] |
| --- | --- | --- | --- | --- |
| 85 | 60 | Danio rerio Archease (natural protein) | – | – |
| – | – | GGCUCCAGUGGCGCAAUCGGUUAGCGCGCGGUACUUAUAAUGCCGAGGUUGUGAGUUCGAGCCUCACCUGGAGCACCA [tRNAIle] | 89.4 | 94 |
